In this assay the target is T1, M. tuberculosis HtpG (high-temperature protein G) (M. tuberculosis H37Rv, UniProt P9WMJ7 1-647).
T1 construct: also called mHtpG; Rv2299c; not shown: GST, N-terminal, cleaved
T1 sequence: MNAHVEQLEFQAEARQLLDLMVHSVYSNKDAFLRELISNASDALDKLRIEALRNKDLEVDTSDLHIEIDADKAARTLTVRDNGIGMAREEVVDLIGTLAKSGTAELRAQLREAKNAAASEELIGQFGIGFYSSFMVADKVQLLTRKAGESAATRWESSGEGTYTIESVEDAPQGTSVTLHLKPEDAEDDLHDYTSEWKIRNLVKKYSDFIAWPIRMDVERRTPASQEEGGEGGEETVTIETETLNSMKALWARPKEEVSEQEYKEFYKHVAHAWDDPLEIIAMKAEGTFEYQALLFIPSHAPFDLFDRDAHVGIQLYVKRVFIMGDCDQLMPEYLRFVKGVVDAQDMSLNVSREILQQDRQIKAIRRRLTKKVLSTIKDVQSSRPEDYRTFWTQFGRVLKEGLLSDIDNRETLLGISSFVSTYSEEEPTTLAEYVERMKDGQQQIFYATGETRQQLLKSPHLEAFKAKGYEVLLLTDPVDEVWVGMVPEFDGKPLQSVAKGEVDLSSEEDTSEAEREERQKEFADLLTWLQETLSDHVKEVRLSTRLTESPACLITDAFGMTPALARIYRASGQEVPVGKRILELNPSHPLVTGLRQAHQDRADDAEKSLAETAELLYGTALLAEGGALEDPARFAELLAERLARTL
The experiment in a line: BLI. To be noted: both partners purified.

Data on one molecule can be found in PMC10269695, “HtpG Is a Metal-Dependent Chaperone Which Assists the DnaK/DnaJ/GrpE Chaperone System of Mycobacterium tuberculosis via Direct Association with DnaJ2” (Microbiology Spectrum, 2023).

In general, Kd refers to the constant that tells how readily two partners part at equilibrium.

B1: M. tuberculosis DnaJ2 (natural protein)
chain: MARDYYGLLGVSKNASDADIKRAYRKLARELHPDVNPDEAAQAKFKEISVAYEVLSDPDKRRIVDLGGDPLESAAAGGNGFGGFGGLGDVFEAFFGGGFGGGAASRGPIGRVRPGSDSLLRMRLDLEECATGVTKQVTVDTAVLCDRCQGKGTNGDSVPIPCDTCGGRGEVQTVQRSLLGQMLTSRPCPTCRGVGVVIPDPCQQCMGDGRIRARREISVKIPAGVGDGMRVRLAAQGEVGPGGGPAGDLYVEVHEQAHDVFVREGDHLHCTVSVPMVDAALGVTVTVDAILDGLSEITIPPGTQPGSVITLRGRGMPHLRSNTRGDLHVHVEVVVPTRLDHQDIELLRELKGRRDREVAEVRSTHAAAGGLFSRLRETFTGR
notes: also called Rv2373c; not shown: GST, N-terminal, cleaved
Regarding B1, the Kd was about 200 nM.
